Assay results published in doi:10.1101/2025.06.24.661301, “Homodimerized Arpins: Binding to Arp2/3 Complexes with Positive Synergy to Inhibit Lamellipodia-Dependent Tumor Metastasis” (bioRxiv, 2025).
No end group written: not given here.

Molecular target: Arp2/3 complex (human, UniProt P61158 1-418; P61160 1-394; O15143 1-372)
Assay: SPR; Biacore 8K, 25°C, PBS with 0.05% Tween-20; Arp2/3 immobilised on CM5 chip; analytes injected at 30 μL/min, 60 s association, 60 s dissociation; Arpin^FM 3.125-200 μM, ArpinCT, GST-aCT and D-aCT 0.625-40 μM, AI-designed variants 0.156-10 μM
Conditions: both partners purified

Kd: 5.5 µM
B1: D-aCT (dual-tailed peptide of two Arpin CTs linked at their N-termini by BM(PEG)3) (peptide)
chain: CSSGGSSGGSSGGSSGGGASWTDNIMAQKSSKGAAAEIREQGDGAEDEEWDD
modifications: not fully specified (residue 1); also: dimer: N-terminal Cys linked to N-terminal Cys of second chain by BM(PEG)3
